In PMC11649927:

Key:
Assay in all cases: cryo-EM structure; single-particle cryo-EM of S trimers in situ on PFA-fixed, concentrated virions; C3 symmetry for the 3-closed-RBD maps, focused classification for 1-open-RBD trimers
[1] = biological target: SARS-CoV-2 spike (S) protein of the Alpha variant (B.1.1.7), on virions (SARS-CoV-2)
[2] = biological target: SARS-CoV-2 spike (S) protein of the B.1 variant (B.1.238), on virions (SARS-CoV-2)
[3] = biological target: SARS-CoV-2 spike (S) protein of the Delta variant (B.1.617.2), on virions (SARS-CoV-2)
[4] = biological target: SARS-CoV-2 spike (S) protein of the Gamma variant (P.1), on virions (SARS-CoV-2)
[5] = biological target: SARS-CoV-2 spike (S) protein of the Mu variant (B.1.621), on virions (SARS-CoV-2)

## SARS-CoV-2 spike (S) protein of the Alpha variant (B.1.1.7), on virions (natural protein)
[1]
  stoichiometry N: 3

## SARS-CoV-2 spike (S) protein of the B.1 variant (B.1.238), on virions (natural protein)
[2]
  stoichiometry N: 3

## SARS-CoV-2 spike (S) protein of the Delta variant (B.1.617.2), on virions (natural protein)
[3]
  stoichiometry N: 3

## SARS-CoV-2 spike (S) protein of the Gamma variant (P.1), on virions (natural protein)
[4]
  stoichiometry N: 3

## SARS-CoV-2 spike (S) protein of the Mu variant (B.1.621), on virions (natural protein)
[5]
  stoichiometry N: 3
